Biological target: the molecule itself
Experiment: cryo-EM structure

B1: untagged G3BP2 NTF2L domain (amino acids 1-139) (domain or fragment)
chain: MVMEKPSPLLVGREFVRQYYTLLNKAPEYLHRFYGRNSSYVHGGVDASGKPQEAVYGQNDIHHKVLSLNFSECHTKIRHVDAHATLSDGVVVQVMGLLSNSGQPERKFMQTFVLAPEGSVPNKFYVHNDMFRYEDEVFG
stoichiometry N: 2

Source: paper doi:10.1101/2025.04.30.651496 (bioRxiv, 2025)
